Paper PMC2729490 (Biochemistry, 2009)
One block for each substance: values may come before it.

Experiments:
[1] = biological target: HVR peptide (22 amino acid synthetic peptide representing the hypervariable region of K-Ras4B) (human); assay: ITC
[2] = system: CaM; conditions: helix 5 independently expressed; ref [22]; cited from earlier work
[3] = biological target: calmodulin (human, Ca2+-loaded) (human) (UniProt P0DP23); assay: NMR titration

Kd [1]: 11.2 µM
dH [1]: 0.65 kcal/mol
stoichiometry N [1]: 1
Substance: calmodulin (human, Ca2+-loaded) (from UniProt P0DP23 1-149) (natural protein)

Substance: α–helix 5 peptide (amino acids 151–166): hydrophobic α–helix 5 peptide (amino acids 151–166) of K-Ras4B, independently expressed, literature (RVEDAFYTLVREIRQY; isoform 2B; UniProt P01116 151-166, looked up, fragment)
CaM binding [2]: apparent binding to CaM

Kd [3]: 17.5 µM
Substance: HVR peptide (22 amino acid synthetic peptide representing the hypervariable region of K-Ras4B)
